± gives the uncertainty stated by the source.
B1: Dynamin-binding protein, residues 242 to 304; numbered along this chain, Q6XZF7 (parent)
chain: EEPGTYGVALYRFQALEPNELDFEVGDKIRILATLEDGWLEGSLKGRTGIFPYRFVKLCPDTR

Variants of: B1
Assay: abundance fitness (aPCA) (normalised: wild type 0, dead -1); higher = more abundant; growth selection in yeast, the domain comes from the species named
Details: Homo sapiens

**Q.** Which abundance fitness does the source give for W39L here?
**A.** -0.184 ± 0.067

**Q.** Which abundance fitness does the source give for W39G here?
**A.** -0.714 ± 0.092

**Q.** Which abundance fitness does the source give for W39E here?
**A.** -0.379 ± 0.17

**Q.** With L32M as the variant, how does the abundance fitness read?
**A.** -0.394 ± 0.17

**Q.** With L32R as the variant, how does the abundance fitness read?
**A.** -0.592 ± 0.077

**Q.** For L32G, which abundance fitness is on record?
**A.** -0.635 ± 0.074

**Q.** For F51K, which abundance fitness is on record?
**A.** -0.623 ± 0.27

**Q.** For F51E, which abundance fitness is on record?
**A.** -0.854 ± 0.26

**Q.** For F51D, which abundance fitness is on record?
**A.** -0.862 ± 0.17

**Q.** With F51H as the variant, how does the abundance fitness read?
**A.** -0.792 ± 0.12

**Q.** With E41N as the variant, how does the abundance fitness read?
**A.** -0.527 ± 0.1

**Q.** Which abundance fitness does the source give for E41G here?
**A.** -0.76 ± 0.11

**Q.** With R63T as the variant, how does the abundance fitness read?
**A.** 0.186 ± 0.056

**Q.** With R63A as the variant, how does the abundance fitness read?
**A.** 0.087 ± 0.073

**Q.** For R63P, which abundance fitness is on record?
**A.** 0.164 ± 0.089

**Q.** For R63H, which abundance fitness is on record?
**A.** 0.065 ± 0.063

**Q.** Which abundance fitness does the source give for R63W here?
**A.** -0.206 ± 0.16

**Q.** With L35T as the variant, how does the abundance fitness read?
**A.** -0.339 ± 0.082

**Q.** With L35C as the variant, how does the abundance fitness read?
**A.** -0.178 ± 0.053

**Q.** Which abundance fitness does the source give for L35G here?
**A.** -0.374 ± 0.055

**Q.** Which abundance fitness does the source give for L35F here?
**A.** -0.315 ± 0.071

**Q.** For L35A, which abundance fitness is on record?
**A.** -0.304 ± 0.068

**Q.** With L35E as the variant, how does the abundance fitness read?
**A.** -0.876 ± 0.4

**Q.** With L35H as the variant, how does the abundance fitness read?
**A.** -0.114 ± 0.071

**Q.** Which abundance fitness does the source give for L35W here?
**A.** -0.642 ± 0.21

**Q.** For L35Y, which abundance fitness is on record?
**A.** -0.187 ± 0.059

**Q.** With L35M as the variant, how does the abundance fitness read?
**A.** -0.413 ± 0.19

**Q.** For L35S, which abundance fitness is on record?
**A.** -0.241 ± 0.051

**Q.** For P3W, which abundance fitness is on record?
**A.** -0.19 ± 0.29

**Q.** With P3F as the variant, how does the abundance fitness read?
**A.** 0.059 ± 0.082

**Q.** Which abundance fitness does the source give for P3V here?
**A.** -0.169 ± 0.068

**Q.** For P3Y, which abundance fitness is on record?
**A.** 0.053 ± 0.07

**Q.** Which abundance fitness does the source give for P3I here?
**A.** 0.273 ± 0.073

**Q.** Which abundance fitness does the source give for P3R here?
**A.** -0.114 ± 0.059

**Q.** With D27T as the variant, how does the abundance fitness read?
**A.** -0.656 ± 0.18

**Q.** With D27W as the variant, how does the abundance fitness read?
**A.** -0.485 ± 0.16

**Q.** For D27Y, which abundance fitness is on record?
**A.** -0.587 ± 0.09

**Q.** With D27H as the variant, how does the abundance fitness read?
**A.** -0.927 ± 0.15

**Q.** With D27E as the variant, how does the abundance fitness read?
**A.** -0.316 ± 0.15

**Q.** With D27C as the variant, how does the abundance fitness read?
**A.** -0.811 ± 0.099

**Q.** With D27F as the variant, how does the abundance fitness read?
**A.** -0.799 ± 0.11

**Q.** Which abundance fitness does the source give for E20Y here?
**A.** 0.059 ± 0.056

**Q.** With E20M as the variant, how does the abundance fitness read?
**A.** 0.023 ± 0.11

**Q.** Which abundance fitness does the source give for E20L here?
**A.** -0.067 ± 0.056

**Q.** Which abundance fitness does the source give for E20V here?
**A.** -0.703 ± 0.086

**Q.** For E20D, which abundance fitness is on record?
**A.** -0.631 ± 0.098

**Q.** Which abundance fitness does the source give for E20A here?
**A.** -0.163 ± 0.076

**Q.** With R54N as the variant, how does the abundance fitness read?
**A.** 0.238 ± 0.063

**Q.** With R54F as the variant, how does the abundance fitness read?
**A.** -0.261 ± 0.065

**Q.** Which abundance fitness does the source give for R54Q here?
**A.** -0.008 ± 0.11

**Q.** With R54Y as the variant, how does the abundance fitness read?
**A.** -0.286 ± 0.07

**Q.** For R54H, which abundance fitness is on record?
**A.** 0.027 ± 0.064

**Q.** With N19V as the variant, how does the abundance fitness read?
**A.** -0.563 ± 0.068

**Q.** For N19A, which abundance fitness is on record?
**A.** -0.18 ± 0.06

**Q.** Which abundance fitness does the source give for N19P here?
**A.** -0.704 ± 0.15

**Q.** For N19F, which abundance fitness is on record?
**A.** -0.297 ± 0.061

**Q.** With N19K as the variant, how does the abundance fitness read?
**A.** -0.227 ± 0.14

**Q.** For F13Y, which abundance fitness is on record?
**A.** 0.213 ± 0.047

**Q.** For F13N, which abundance fitness is on record?
**A.** -0.023 ± 0.057

**Q.** With F13R as the variant, how does the abundance fitness read?
**A.** 0.11 ± 0.06

**Q.** For T5L, which abundance fitness is on record?
**A.** 0.052 ± 0.059

**Q.** Which abundance fitness does the source give for T5D here?
**A.** -0.587 ± 0.099

**Q.** With T5Q as the variant, how does the abundance fitness read?
**A.** 0 ± 0.16

**Q.** For T5E, which abundance fitness is on record?
**A.** -0.61 ± 0.17

**Q.** Which abundance fitness does the source give for T5C here?
**A.** -0.143 ± 0.059

**Q.** Which abundance fitness does the source give for T5S here?
**A.** -0.282 ± 0.055

**Q.** Which abundance fitness does the source give for P52R here?
**A.** -0.855 ± 0.088

**Q.** For P52I, which abundance fitness is on record?
**A.** -0.741 ± 0.11

**Q.** For P52A, which abundance fitness is on record?
**A.** -0.68 ± 0.097

**Q.** For S43W, which abundance fitness is on record?
**A.** -0.393 ± 0.27

**Q.** With S43A as the variant, how does the abundance fitness read?
**A.** -0.106 ± 0.058

**Q.** For S43E, which abundance fitness is on record?
**A.** 0.219 ± 0.14

**Q.** With S43F as the variant, how does the abundance fitness read?
**A.** -0.226 ± 0.068

**Q.** Which abundance fitness does the source give for I29T here?
**A.** -0.639 ± 0.12

**Q.** Which abundance fitness does the source give for I29E here?
**A.** -0.721 ± 0.22

**Q.** Which abundance fitness does the source give for I29Y here?
**A.** -0.808 ± 0.12

**Q.** With I29C as the variant, how does the abundance fitness read?
**A.** -0.839 ± 0.11

**Q.** With I29N as the variant, how does the abundance fitness read?
**A.** -0.845 ± 0.11

**Q.** For I29P, which abundance fitness is on record?
**A.** -0.35 ± 0.11

**Q.** With I29D as the variant, how does the abundance fitness read?
**A.** -0.685 ± 0.1

**Q.** For G4P, which abundance fitness is on record?
**A.** 0.214 ± 0.11

**Q.** With G4R as the variant, how does the abundance fitness read?
**A.** -0.187 ± 0.059

**Q.** With G4I as the variant, how does the abundance fitness read?
**A.** 0.078 ± 0.064

**Q.** Which abundance fitness does the source give for G4V here?
**A.** 0.008 ± 0.052

Source: the Human Domainome abundance scans (Beltran et al. 2025)
